Reference: patent US20240336918

Legend:
[1] = biological target: T1, LIN28A (UniProt Q9H9Z2); assay: filter; conditions: transition between unbound and bound at ~10 nM; aggregates retained on PES at 50 nM and above
T1 sequence: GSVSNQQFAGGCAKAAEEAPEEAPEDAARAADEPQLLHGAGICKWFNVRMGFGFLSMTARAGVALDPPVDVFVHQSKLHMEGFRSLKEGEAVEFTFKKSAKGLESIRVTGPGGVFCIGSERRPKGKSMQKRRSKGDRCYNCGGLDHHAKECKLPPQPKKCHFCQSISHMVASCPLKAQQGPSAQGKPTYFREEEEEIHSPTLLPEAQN

[2] = biological target: T1, LIN28A; assay: EMSA; conditions: higher-order aggregates above 50 nM

pre-let-7a miRNA gave a Kd [1] of 0.01 µM and a Kd [2] of 0.025 µM.
